“And” between values parts separate entries of the source, which are not always exact repeats. Equal values may be shown once.

In experiment [1] the test system is peripheral blood mononuclear cells (PBMC) / T-cells. Put plainly: T-cell proliferation assay (3H-Thymidine incorporation, stimulation index). Particulars: for T-cell proliferative response, S.I., Mean ± SD: group mean. The experiment is classed as cell-based, human. On the technique in general: Dividing cells build labelled thymidine or BrdU into new DNA.
In experiment [2] the test system is serum IgG anti-hsp60, anti-hsp70, anti-hsp90, anti-tetanus toxoid. The experiment in a line: Determination of auto-antibodies (antibody capture ELISA on antigen-coated plates). The experiment is classed as binding, human. Particulars: for IgG antibodies to the antigen in serum, Mean ± SD: group mean. On the procedure: All of the serum samples that were collected were stored in aliquotes at −20° C. and thawed before each assay. Total human IgG anti-hsp60, anti-hsp70, and anti-hsp90, as well as anti-tetanus toxoid proteins were detected by the antibody capture-type enzyme immunoassay ELISA [Maggio, M. T. (1981) Enzyme Immunoassay, CRC Press, Boca Raton, USA]. 96-well micro titer plates (Dynatech) were coated with the protein according to the antibody being tested. Serum samples were distributed at dilutions in the range of 1:50 to 1:70 into the pre-coated wells for the protein detection assay. Thus, any IgG anti-hsp60, anti-hsp70, anti-hsp90, or anti-tetanus toxoid present should be bound by the immobilized peptide or protein. After washing off unbound material, a mouse monoclonal anti-human IgG antibody conjugated to alkaline phosphatase (AP) was added to the wells. After an additional washing step to remove any unbound anti-enzyme reagent, the AP substrate p-nitrophenyl phosphate (pNPP) solution was added. The intensity of the color developed was measured using an Anthos htll ELISA reader at λ=405 nm. The amount of antibody detected was represented as Units of Optical Density at λ=405 nm. Patients and control subjects were assayed in the same experiment.
The InStat 2.01 computer program was used for the statistical analysis. The results obtained from the samples of healthy individuals were used to determine the cutoff for each assay, which was established as the mean plus two standard deviations (SDs). […] The results were presented as the percentage of positive from the total tested group.
Levels of IgG antibodies to hsp60, hsp70, and hsp90 were measured in the sera of 20 Type 1 Diabetes children (P1-P5, P7-P21; Table 3A) and two control groups, 10 normoglycemic children (Table 3B) and 15 healthy adult blood donors (Table 3C). The level of the antibodies was scored as positive when it was greater than the cut-off level (cut-off levels were established based on the mean value of antibody levels from the normoglycemic children plus two standard deviations).
(In general: In an ELISA, binding on a coated surface is turned into a signal by an enzyme label.)

The subject of experiment [3] is peripheral blood mononuclear cells (PBMC) / T-cells. Particulars: 25 newly diagnosed Type 1 Diabetes adult patients; Abulafia-Lapid et al. 1999; cited from earlier work.

B1: hsp60: recombinant human hsp60 (StressGen, Canada), 60 kDa heat-shock protein (protein)
chain: AKDVKFGADARALMLQGVDLLADAVAVTMGPKGRTVIIEQSWGSPKVTKDGVTVAKSIDLKDKYKNIGAKLVQDVANNTNEEAGDGTTTATVLARSIAKEGFEKISKGANPVEIRRGVMLAVDAVIAELKKQSKPVTTPEEIAQVATISANGDKEIGNIISDAMKKVGRKGVITVKDGKTLNDELEIIEGMKFDRGYISPYFINTSKGQKCEFQDAYVLLSEKKISSIQSIVPALEIANAHRKPLVIIAEDVDGEALSTLVLNRLKVGLQVVAVKAPGFGDNRKNQLKDMAIATGGAVFGEEGLTLNLEDVQPHDLGKVGEVIVTKDDAMLLKGKGDKAQIEKRIQEIIEQLDVTTSEYEKEKLNERLAKLSDGVAVLKVGGTSDVEVNEKKDRVTDALNATRAAVEEGIVLGGGCALLRCIPALDSLTPANEDQKIGIEIIKRTLKIPAMTIAKNAGVEGSLIVEKIMQSSSEVGYDAMAGDFVNMVEKGIIDPTKVVRTALLDAAGVASLLTTAEVVVTEIPKEEKDPGMGAMGGMGGGMGGGMF
For B1, the “T-cell proliferative response, Stimulation Index (S.I.)” value in experiment [1] was determined as 1.25. Besides, the “T-cell proliferative response, S.I., Mean ± SD” value was 1.79±0.74 and 1.7 ± 0.72 in experiment [1] (Healthy subjects); 1.22 ± 0.36 in experiment [1] (Type 1 Diabetes adult patients); 3.6±2.6 in experiment [1] (Type 1 Diabetes children); 1.7 ± 0.75 in experiment [1] (Type 2 Diabetes patients). In addition, the “T-cell response, in words” value in experiment [1] (Type 1 Diabetes adult patients (Table 1D), tested after more than 12 weeks) is “not seen”. Further, the “Responding subjects (S.I.≥2)” value is listed as 85% in experiment [1] (Type 1 Diabetes children) and 39% in experiment [1] (healthy subjects / healthy blood donors). Besides, the “IgG antibodies to the antigen in serum, Mean ± SD” value is recorded as 0.6 Units of Optical Density at λ=405 nm in experiment [2] (Type 1 Diabetes children), 0.61 ± 0.12 Units of Optical Density at λ=405 nm in experiment [2] (healthy adult blood donors) and 0.45 ± 0.11 Units of Optical Density at λ=405 nm in experiment [2] (pediatric control serum donors). Besides, the “Positive (antibody level above cut-off)” value is listed as 45% in experiment [2] (Type 1 diabetes children (n=20), cut-off = mean of normoglycemic children plus two SD); 45% in experiment [2] (Type 1 diabetes children (n=20), cut-off = mean of normoglycemic children plus two SD, listed as Hsp60); 6% in experiment [2] (healthy adult blood donors (n=15)); 6.6% in experiment [2] (healthy adult blood donors (n=15), listed as Hsp60); 10% in experiment [2] (pediatric control serum donors / healthy children (n=10)); 10% in experiment [2] (pediatric control serum donors / healthy children (n=10), listed as Hsp60). In addition, the “Patients tested positive (proliferative response)” value in experiment [3] is given as 92%.
